For one molecule, Kd results are on record in PMC6358511.

This data set addresses EGFRvIII, biotinylated (human, UniProt P00533 25-30+298-645, V30G;internal_change). The data set can be described thus: BLI. Background: In BLI a coated tip is dipped into the sample, and binding shifts an interference pattern.

For orientation: Kd means the equilibrium constant for the complex coming apart. Molecule GGACGGAUUUAAUCGCCGUAGAAAAGCAUGUCAAAGCCGGAACCGUCC (XNA, 2'-fluoro at all C and U; 2'-OH purines; 5' alkyne) [ME07 (alkyne-modified MinE07)] gave a Kd of 271 nM.
